Assay results from article PMC7855493 (Molecular cell, 2020).

Molecular target: T1, yeast mitochondrial RNA polymerase ΔN100 (y-mtRNAP ΔN100) (S. cerevisiae, UniProt P13433 101-1351)
T1 sequence (looked up): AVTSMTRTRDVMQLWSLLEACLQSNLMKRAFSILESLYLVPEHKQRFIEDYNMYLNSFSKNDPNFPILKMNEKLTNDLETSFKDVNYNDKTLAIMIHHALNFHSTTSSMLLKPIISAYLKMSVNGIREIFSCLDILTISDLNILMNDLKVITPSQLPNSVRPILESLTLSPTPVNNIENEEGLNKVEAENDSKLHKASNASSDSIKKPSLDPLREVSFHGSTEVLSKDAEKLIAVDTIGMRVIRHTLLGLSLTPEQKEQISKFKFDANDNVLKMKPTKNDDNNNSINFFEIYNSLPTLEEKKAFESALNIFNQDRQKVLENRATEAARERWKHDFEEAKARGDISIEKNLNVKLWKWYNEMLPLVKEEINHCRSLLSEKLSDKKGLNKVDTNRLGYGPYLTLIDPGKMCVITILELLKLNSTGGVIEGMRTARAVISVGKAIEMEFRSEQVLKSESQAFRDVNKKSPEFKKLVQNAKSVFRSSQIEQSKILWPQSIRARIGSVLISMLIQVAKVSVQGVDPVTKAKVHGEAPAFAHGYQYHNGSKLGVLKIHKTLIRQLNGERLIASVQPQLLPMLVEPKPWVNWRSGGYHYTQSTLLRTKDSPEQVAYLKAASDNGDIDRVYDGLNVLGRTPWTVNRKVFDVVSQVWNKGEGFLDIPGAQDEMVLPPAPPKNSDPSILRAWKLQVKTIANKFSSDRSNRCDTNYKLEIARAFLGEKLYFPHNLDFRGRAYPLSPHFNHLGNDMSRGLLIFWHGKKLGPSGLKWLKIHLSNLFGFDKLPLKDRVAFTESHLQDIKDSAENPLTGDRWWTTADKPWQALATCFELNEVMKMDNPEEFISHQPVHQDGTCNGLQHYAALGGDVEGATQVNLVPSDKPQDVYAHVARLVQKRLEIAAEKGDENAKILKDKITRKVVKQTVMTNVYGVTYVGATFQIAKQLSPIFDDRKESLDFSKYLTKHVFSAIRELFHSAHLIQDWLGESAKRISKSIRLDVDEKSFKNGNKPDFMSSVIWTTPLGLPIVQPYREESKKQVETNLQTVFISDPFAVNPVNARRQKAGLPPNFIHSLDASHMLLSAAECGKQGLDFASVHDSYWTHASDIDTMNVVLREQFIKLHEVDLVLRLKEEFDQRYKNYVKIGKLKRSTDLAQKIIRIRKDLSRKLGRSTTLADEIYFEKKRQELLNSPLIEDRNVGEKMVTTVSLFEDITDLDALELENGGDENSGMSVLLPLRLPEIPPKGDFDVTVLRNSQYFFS
Assay: cryo-EM structure

- binding result: binds
B1: MTF1 (yeast mitochondrial transcription factor), wild type (natural protein, S. cerevisiae)
chain: SVPIPGIKDISKLKFFYGFKYLWNPTVYNKIFDKLDLTKTYKHPEELKVLDLYPGVGIQSAIFYNKYCPRQYSLLEKRSSLYKFLNAKFEGSPLQILKRDPYDWSTYSNLIDEERIFVPEVQSSDHINDKFLTVANVTGEGSEGLIMQWLSCIGNKNWLYRFGKVKMLLWMPSTTARKLLARPGMHSRSKCSVVREAFTDTKLIAISDANELKGFDSQCIEEWDPILFSAAEIWPTKGKPIALVEMDPIDFDFDVDNWDYVTRHLMILKRTPLNTVMDSLGHGGQQYFNSRITDKDLLKKCPIDLTNDEFIYLTKLFMEWPFKPDILMDFVDMYQTEHSG
